# Source: paper PMC2951910, “Signal Transduction Protein Array Analysis Links LRRK2 to Ste20 Kinases and PKC Zeta That Modulate Neuronal Plasticity” (PLoS ONE, 2010)
# How the values were obtained:
# [1] = target: T1, kinase-inactive GST-tagged LRRK2(D1994A) (970-2527) (human, UniProt Q5S007 970-2527, D1994A); test: peptide or protein array; BCCP-tagged full-length human proteins held on streptavidin-coated slides, pre-incubated with 100 uM cold ATP; overlaid with 130 nM GST-LRRK2 (G2019S or D1994A) with 10 uM ATP and [gamma-33P]ATP for 1 h at 30 C; washed in 0.5% SDS; radioactive signal on the spots read on phosphoscreens; buffer only as control; conditions: both partners purified
# T1 construct: also called kinase-dead LRRK2(D1994A); source: bought: Invitrogen
# T1 sequence (Q5S007 970-2527 D1994A): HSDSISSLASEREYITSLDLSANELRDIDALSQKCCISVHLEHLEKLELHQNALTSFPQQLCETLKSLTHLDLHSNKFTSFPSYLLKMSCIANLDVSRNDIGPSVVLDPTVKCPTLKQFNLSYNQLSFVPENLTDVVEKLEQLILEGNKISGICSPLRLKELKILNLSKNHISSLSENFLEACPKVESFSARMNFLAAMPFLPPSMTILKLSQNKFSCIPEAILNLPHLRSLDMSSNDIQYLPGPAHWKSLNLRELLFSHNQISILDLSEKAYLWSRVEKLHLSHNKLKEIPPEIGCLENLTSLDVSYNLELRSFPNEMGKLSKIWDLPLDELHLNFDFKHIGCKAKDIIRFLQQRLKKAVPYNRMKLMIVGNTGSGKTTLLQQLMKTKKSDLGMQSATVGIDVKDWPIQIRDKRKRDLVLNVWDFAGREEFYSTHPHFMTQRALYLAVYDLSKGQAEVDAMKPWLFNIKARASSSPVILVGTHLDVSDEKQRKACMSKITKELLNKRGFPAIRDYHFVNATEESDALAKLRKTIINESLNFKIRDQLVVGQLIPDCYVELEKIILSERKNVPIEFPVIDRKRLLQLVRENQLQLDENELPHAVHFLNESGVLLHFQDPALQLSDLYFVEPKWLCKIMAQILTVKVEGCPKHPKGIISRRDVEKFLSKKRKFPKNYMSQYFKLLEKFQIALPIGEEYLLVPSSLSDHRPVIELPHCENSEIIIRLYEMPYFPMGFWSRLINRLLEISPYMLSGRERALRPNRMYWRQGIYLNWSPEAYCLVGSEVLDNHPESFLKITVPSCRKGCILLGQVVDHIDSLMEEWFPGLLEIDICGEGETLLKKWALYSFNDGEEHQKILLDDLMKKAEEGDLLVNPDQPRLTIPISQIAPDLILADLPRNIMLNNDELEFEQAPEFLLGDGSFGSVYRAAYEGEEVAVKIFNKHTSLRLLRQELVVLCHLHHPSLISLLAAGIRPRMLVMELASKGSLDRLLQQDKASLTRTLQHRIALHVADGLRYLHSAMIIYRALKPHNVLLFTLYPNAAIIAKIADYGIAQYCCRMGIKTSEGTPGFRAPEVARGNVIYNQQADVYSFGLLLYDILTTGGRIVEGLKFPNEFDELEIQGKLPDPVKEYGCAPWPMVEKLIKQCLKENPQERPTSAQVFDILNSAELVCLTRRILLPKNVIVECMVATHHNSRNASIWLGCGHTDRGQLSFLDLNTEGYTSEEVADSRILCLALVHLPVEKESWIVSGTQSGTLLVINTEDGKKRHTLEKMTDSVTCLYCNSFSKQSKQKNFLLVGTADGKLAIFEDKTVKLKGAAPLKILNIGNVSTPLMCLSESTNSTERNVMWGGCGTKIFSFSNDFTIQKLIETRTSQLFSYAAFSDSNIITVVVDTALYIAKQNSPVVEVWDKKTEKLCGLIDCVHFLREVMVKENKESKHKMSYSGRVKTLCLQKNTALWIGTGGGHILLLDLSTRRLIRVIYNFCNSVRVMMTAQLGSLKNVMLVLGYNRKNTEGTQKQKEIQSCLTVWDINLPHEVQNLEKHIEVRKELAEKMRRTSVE
# [2] = target: T2, GST-tagged LRRK2(G2019S) (amino acids 970-2527) (human, UniProt Q5S007 970-2527, G2019S, autophosphorylated (10 uM cold ATP, 1 h, 30 C) before the binding arrays; sites not stated); test: peptide or protein array; BCCP-tagged full-length human proteins held on streptavidin-coated slides; overlaid with autophosphorylated GST-LRRK2(G2019S) (970-2527) or recombinant GST with cold ATP for 1 h at 30 C; washed in buffer with 0.5% SDS; detected with an Alexa 488-conjugated anti-GST antibody; conditions: both partners purified
# T2 construct: leucine-rich repeat kinase 2 (LRRK2), human, amino acids 970-2527, with the Parkinson's disease-linked mutation G2019S; In the 33P arrays the kinase was not autophosphorylated beforehand, but ATP was present during the incubation; also called recombinant LRRK2(G2019S); leucine-rich repeat kinase 2; source: bought: Invitrogen; not shown: GST, N-terminal, kept
# T2 sequence (Q5S007 970-2527 G2019S): as the sequence (Q5S007 970-2527 D1994A) above, with A1025D, G1050S counted along it
binding result [1],binding result [2],Binder
binds,binds,"Protein kinase C, zeta (PRKCZ), arrayed (enzyme, human, UniProt Q05513 1-592, looked up, biotin on the biotin-carboxyl carrier protein tag, protein kinase C zeta (PRKCZ), human, full length, spotted on the array; Held on streptavidin-coated glass slides by the biotinylated tag; also called PKC zeta; source: bought: Sigma Panorama Human Protein Function Array - Signal Transduction; expressed in insect cells) MPSRTGPKMEGSGGRVRLKAHYGGDIFITSVDAATTFEELCEEVRDMCRLHQQHPLTLKWVDSEGDPCTVSSQMELEEAFRLARQCRDEGLIIHVFPSTPEQPGLPCPGEDKSIYRRGARRWRKLYRANGHLFQAKRFNRRAYCGQCSERIWGLARQGYRCINCKLLVHKRCHGLVPLTCRKHMDSVMPSQEPPVDDKNEDADLPSEETDGIAYISSSRKHDSIKDDSEDLKPVIDGMDGIKISQGLGLQDFDLIRVIGRGSYAKVLLVRLKKNDQIYAMKVVKKELVHDDEDIDWVQTEKHVFEQASSNPFLVGLHSCFQTTSRLFLVIEYVNGGDLMFHMQRQRKLPEEHARFYAAEICIALNFLHERGIIYRDLKLDNVLLDADGHIKLTDYGMCKEGLGPGDTTSTFCGTPNYIAPEILRGEEYGFSVDWWALGVLMFEMMAGRSPFDIITDNPDMNTEDYLFQVILEKPIRIPRFLSVKASHVLKGFLNKDPKERLGCRPQTGFSDIKSHAFFRSIDWDLLEKKQALPPFQPQITDDYGLDNFDTQFTSEPVQLTPDDEDAIKRIDQSEFEGFEYINPLLLSTEESV"
–,binds,"TNF receptor-associated factor 2, transcript variant 1 (TRAF2), arrayed (natural protein, human, UniProt Q12933 1-501, looked up, biotin on the biotin-carboxyl carrier protein tag, TNF receptor-associated factor 2 (TRAF2), human, full length, spotted on the array; Held on streptavidin-coated glass slides by the biotinylated tag; also called tumor necrosis factor receptor-associated factor 2; source: bought: Sigma Panorama Human Protein Function Array - Signal Transduction; expressed in insect cells) MAAASVTPPGSLELLQPGFSKTLLGTKLEAKYLCSACRNVLRRPFQAQCGHRYCSFCLASILSSGPQNCAACVHEGIYEEGISILESSSAFPDNAARREVESLPAVCPSDGCTWKGTLKEYESCHEGRCPLMLTECPACKGLVRLGEKERHLEHECPERSLSCRHCRAPCCGADVKAHHEVCPKFPLTCDGCGKKKIPREKFQDHVKTCGKCRVPCRFHAIGCLETVEGEKQQEHEVQWLREHLAMLLSSVLEAKPLLGDQSHAGSELLQRCESLEKKTATFENIVCVLNREVERVAMTAEACSRQHRLDQDKIEALSSKVQQLERSIGLKDLAMADLEQKVLEMEASTYDGVFIWKISDFARKRQEAVAGRIPAIFSPAFYTSRYGYKMCLRIYLNGDGTGRGTHLSLFFVVMKGPNDALLRWPFNQKVTLMLLDQNNREHVIDAFRPDVTSSSFQRPVNDMNIASGCPLFCPVSKMEAKNSYVRDDAIFIKAIVDLTGL"
–,binds,"Serine/threonine kinase 25 (STE20 homolog, yeast) (STK25), arrayed (enzyme, biotin on the biotin-carboxyl carrier protein tag, serine/threonine kinase 25 (STK25), human, full length, spotted on the array; Held on streptavidin-coated glass slides by the biotinylated tag; The array was pre-incubated with 100 uM cold ATP in the substrate arrays; source: bought: Sigma Panorama Human Protein Function Array - Signal Transduction; expressed in insect cells) not shown"
